For this experiment, the target named is human VEGF165 (non-biotinylated) (human) (UniProt P15692). Briefly: cell-based or functional assay.

This passage reports maximal inhibition of VEGF-stimulated proliferation results from patent publication US20260097098A1.

Chain of human VEGF165 (non-biotinylated) (human) (P15692 other isoform, or with tags, fused parts or gaps): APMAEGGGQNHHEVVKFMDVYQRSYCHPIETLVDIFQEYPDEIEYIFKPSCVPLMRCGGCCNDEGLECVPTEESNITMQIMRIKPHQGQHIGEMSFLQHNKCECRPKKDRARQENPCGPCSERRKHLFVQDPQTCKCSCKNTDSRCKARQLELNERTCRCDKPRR

With EYLEA (aflibercept) (Fc fusion), the maximal inhibition of VEGF-stimulated proliferation is under 80%.
